Measured values from publication PMC5042579.

Key:
GFP-EB1 (human) (human) = GFP-EB1 (human) (human) (UniProt Q15691); assay: TIRF microscopy of reconstituted dynamic microtubules
[1] = biological target: biotinylated EB1 (mouse end-binding protein 1) (mouse) (UniProt Q61166); assay: pull-down
[2] = biological target: microtubules of tubulin purified from bovine brain (bovine) (UniProt Q6B856); assay: co-sedimentation; settings: scale: molecule per 100 dimers of polymerized tubulin

GFP-EB1 (human) (human), sequence (Q15691 whole entry): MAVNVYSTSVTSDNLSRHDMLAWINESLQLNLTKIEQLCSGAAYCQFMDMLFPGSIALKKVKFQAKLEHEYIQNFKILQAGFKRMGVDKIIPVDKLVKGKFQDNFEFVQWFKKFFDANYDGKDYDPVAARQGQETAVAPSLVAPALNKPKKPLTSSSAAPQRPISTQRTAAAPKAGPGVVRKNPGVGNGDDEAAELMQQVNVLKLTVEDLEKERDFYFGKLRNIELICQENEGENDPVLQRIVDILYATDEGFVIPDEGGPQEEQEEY
biotinylated EB1 (mouse end-binding protein 1) (mouse), sequence (Q61166 whole entry): as the sequence (Q15691 whole entry) above, with D123E, N147S, T154G, S157T, S165A, A170T, V179M, N201K counted along it

| Substance | GFP-EB1 comet intensity at microtubule ends with 75 nM tau protein (GFP-EB1 (human) (human)) [a.u.] | percent bound to EB1 compared with tau [1] [%] | tau molecules bound per 100 dimers of polymerized tubulin [2] |
| --- | --- | --- | --- |
| P2R′-tau (tau fragment from P2 to R′) (from UniProt P10636-7 169-371) (domain or fragment) | 7 | – | – |
| S262E-tau (phosphomimetic tau, serine 262 replaced by glutamate) (natural protein) | – | 50.1 | 1 |
